Data reported in patent publication US6984373B2, “Fibrin binding moieties useful as imaging agents” (Dyax Corp., priority 2000, dated 2006).
* marks the point of attachment. HYNIC = NNc1ccc(C(=O)*)cn1

System: human fibrin gel
Experiment: Gamma camera imaging of fibrin clot in rabbit femoral artery with 99mTc-labeled peptide
Format: in vivo
Conditions: tricine coligand
Method: Preliminary imaging experiments were performed with ^99mTc-labeled DX-328 using tricine as a coligand. A human fibrin gel was formed around a small wire placed in the femoral artery of a rabbit. The radiolabeled imaging agent was injected into the ear vein of the rabbit, and images were taken using a gamma camera.
The intensity of radioactivity in the pulmonary region is due to circulating imaging agent that has not yet cleared. By increasing the time between injection and imaging, the background in the pulmonary region and elsewhere should be reduced as the unbound imaging agent clears through the kidneys. Alternatively, the same effect could be achieved by decreasing the clearance time of the imaging agent. This could be accomplished by using EDDA as a coligand instead of tricine.

Ac-WQPCPWESWTFCWDPGGGK(HYNIC)-NH2 (not fully specified (bridges); cysteine pairing not given here; also: 99mTc/tricine complex) [DX-328, HYNIC-labeled peptide, used 99mTc-labeled with tricine coligand]
route of excretion of agent unbound to the clot (rabbit): renally excreted
visualisation of clot in left thigh versus clot-free right thigh (ear vein injection, human fibrin gel on wire in femoral artery): can clearly be seen
